Data on one molecule can be found in patent US20210315992A1, “ADJUVANT EFFECT OF THE TLR1/2 AGONIST DIPROVOCIM SYNERGIZES WITH CHECKPOINT-INHIBITING ANTIBODIES TO ELIMINATE DISEASE” (The Board of Regents of the University of Texas System, priority 2018, published 2021).

For experiment [1], the system named is OVA peptide-pulsed target cells. The experiment in a line: In vivo CTL killing assay. Also noted: species or system mouse. The following applies: i.m. immunization, 100 μg OVA, Diprovocim 10 mg/kg; target cells i.v. day 7, read two days later.
Experiment [2] concerns B16-OVA melanoma. The experiment in a line: B16-OVA melanoma, pre-tumor treatment (immunization on day of tumor inoculation). In kind it is in vivo, mouse. How it is done: FIG. 4A through FIG. 4J illustrate inhibition of B16-OVA tumor growth by pre- or post-tumor treatment with Diprovocim-adjuvanted tumor vaccination and checkpoint blockade. FIG. 4A provides a schematic of pre- and post-tumor treatment protocols. C57BL/6J mice (n=8 mice per treatment) were injected s.c. with 2×10^5 B16-OVA melanoma cells on day 0. For pre-tumor treatment, mice were immunized i.m. with OVA (100 μg) mixed with vehicle or Diprovocim (10 mg/kg) or alum (2 mg/kg) on the same day prior to tumor injection. Mice received a booster immunization seven days later in which anti-PD-L1 (200 μg) was administered on days 3, 6 and 9 after tumor inoculation by i.p. injection. For post-tumor treatment, initial immunization was on day 3 after tumor inoculation, with a booster seven days later. Anti-PD-L1 (200 μg) was administered on days 3, 6, 9, 12, and 15 after tumor inoculation by i.p. injection. FIG. 4B through FIG. 4F illustrate pre-tumor treatment results. Tumor volume (FIG. 4B and FIG. 4D) and percent mouse survival (survivors/total mice) (FIG. 4C and FIG. 4E). […] FIG. 4G through FIG. 4J illustrate a comparison of pre-tumor (FIG. 4G and FIG. 4H) vs. post-tumor treatment (FIG. 4I and FIG. 4J). Tumor volume (FIG. 4G and FIG. 4I) and percent mouse survival (survivors/total mice) (FIG. 4H and FIG. 4J) are shown. P values for tumor volume analysis apply to the final time point as indicated in graphs and were calculated by Student's t test. P values for survival analysis were calculated by Kaplan-Meier analysis. All results are representative of two independent studies.
C57BL/6J mice (n=8) were injected s.c. with 2×10^5 B16-OVA melanoma cells on day 0. Anti-PD-L1 (200 μg) or mouse IgG2a isotype control antibody was administered on days 3, 6 and 9 after tumor inoculation by i.p. injection. FIG. 8A is a graph of tumor volume versus time and FIG. 8B is a graph showing percent mouse survival (survivors/total mice) versus time. The control values in both plots are shown above those for the anti-PD-L1 values where the two values diverge. […] Results are representative of two independent studies.
B16-OVA cells (B16F10 melanoma cells stably expressing chicken ovalbumin) were grown in DMEM containing 10% vol/vol FBS. A total of 2×10^5 B16-OVA cells in 100 μL PBS were injected s.c. into the right flank of 8-12 week old male C57BL/6J mice to establish tumors (n=8 mice per group). For pretreatment, 10 mg/kg Diprovocim-1 or 2 mg/kg alum with or without OVA (100 μg) was injected i.m. into mice on the same day as tumor inoculation (day 0). Mice received a booster shot seven days after the first immunization. On day 3, 6 and 9, some groups were injected i.p. with 200 μg checkpoint inhibitor (anti-mPD-L1, BioXcell) in 100 μl saline.
Tumors were measured with a digital caliper (Fisher) and the tumor sizes were calculated using the following formula: volume=0.5×length×width^2. Mice were sacrificed when the tumor length or width reached 2 cm.

The test system of experiment [3] is OT-I CD8 T cells. Nature of the experiment: Cross-priming of CD8 T cells (CD69 on OT-I CD8 T cells co-cultured with DCs of immunized mice). In kind it is in vivo, mouse. Conditions: DCs 24 hours after i.m. immunization, 24 hours co-culture. How it is done: C57BL/6J male mice were injected i.m. with 100 μg OVA mixed with vehicle or with 10 mg/kg Diprovocim (n=4 mice per treatment). 24 hours later, DCs from draining lymph nodes and spleen were purified by Mouse Pan Dendritic Cell Isolation Kit (Miltenyi Biotech). CD8 T cells from OT-I transgenic mice were purified by Mouse CD8+ T Cell Isolation Kit (Miltenyi Biotech). 3×10^5 DCs were co-cultured with 3×10^5 OT-I CD8 T cells in RPMI medium containing 10% vol/vol FBS and 1% vol/vol penicillin and streptomycin for 24 hours. Then, cells were collected and stained with anti-mouse CD3-FITC, anti-mouse CD8-BV510, and anti-mouse CD69-PE-CF594 (BioLegend) for 45 minutes. Then, the cells were washed twice with PBS. Stained cells were analyzed with an LSRII instrument and the flow cytometry data were analyzed using FlowJo software.

The test system of experiment [4] is B16-OVA melanoma. The experiment in a line: B16-OVA melanoma, post-tumor treatment (immunization day 3 after tumor inoculation). In kind it is in vivo, mouse. The following applies: immunization three days after tumor inoculation, plus anti-PD-L1.
Description: C57BL/6J mice (n=8 mice per treatment) were injected s.c. with 2×10^5 B16-OVA melanoma cells on day 0. For pre-tumor treatment, mice were immunized i.m. with OVA (100 μg) mixed with vehicle or Diprovocim (10 mg/kg) or alum (2 mg/kg) on the same day prior to tumor injection. Mice received a booster immunization seven days later in which anti-PD-L1 (200 μg) was administered on days 3, 6 and 9 after tumor inoculation by i.p. injection. For post-tumor treatment, initial immunization was on day 3 after tumor inoculation, with a booster seven days later. Anti-PD-L1 (200 μg) was administered on days 3, 6, 9, 12, and 15 after tumor inoculation by i.p. injection. […] P values for tumor volume analysis apply to the final time point as indicated in graphs and were calculated by Student's t test. P values for survival analysis were calculated by Kaplan-Meier analysis. All results are representative of two independent studies.
For post-treatment, 10 mg/kg Diprovocim-1 or 2 mg/kg Alum with OVA (100 μg) was injected i.m. into mice on day 3 after tumor inoculation. Mice received a booster shot seven days after the first immunization. On day 3, 6, 9, 12 and 15 after tumor inoculation, mice were also injected i.p. with 200 μg anti-mPD-L1 in 100 μl saline.
Tumors were measured with a digital caliper (Fisher) and the tumor sizes were calculated using the following formula: volume=0.5×length×width^2. […]
[5] abbreviates: immunization on day of tumor inoculation, plus anti-PD-L1.

B1: OVA: EndoFit ovalbumin, Invivogen; immunogen, given mixed with vehicle when without adjuvant (protein, UniProt P01012 2-386, looked up)
Ovalbumin: GSIGAASMEFCFDVFKELKVHHANENIFYCPIAIMSALAMVYLGAKDSTRTQINKVVRFDKLPGFGDSIEAQCGTSVNVHSSLRDILNQITKPNDVYSFSLASRLYAEERYPILPEYLQCVKELYRGGLEPINFQTAADQARELINSWVESQTNGIIRNVLQPSSVDSQTAMVLVNAIVFKGLWEKAFKDEDTQAMPFRVTEQESKPVQMMYQIGLFRVASMASEKMKILELPFASGTMSMLVLLPDEVSGLEQLESIINFEKLTEWTSSNVMEERKIKVYLPRMKMEEKYNLTSVLMAMGITDVFSSSANLSGISSAESLKISQAVHAAHAEINEAGREVVGSAEAGVDAASVSEEFRADHPFLFCIKHIATNAVLFFGRCVSP
For the molecule B1, the target cells eliminated result in experiment [1] is “about 10%”. Besides, in experiment [2] (setting [5]), the average survival time stood at 24 days and the “mice died by 38 days after tumor inoculation” value is reported as 100%. Moreover, the “tumor growth rates and survival times compared with vehicle alone” value in experiment [2] (single agent, no anti-PD-L1, i.m. day 0 and booster day 7) was “similar”. In experiment [3], the “activation (CD69 upregulation) of OT-I CD8 T cells by DCs of immunized mice” value is “failed to induce CD69 expression”. In addition, in experiment [4], the average survival time is given as 22 days.
